# Measurements from the nanobody polyreactivity screen of Harvey et al. (2022).
# Test: yeast display, Sf9 membrane polyspecificity reagent, FACS + sequencing; frameworks hold sequencing errors
# In short: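 Galactose induction of a Saccharomyces cerevisiae BJ5465 synthetic nanobody display library ran 36–48 hours. The cells were then stained for 1 hour at 4 °C with 10% biotinylated, detergent-solubilized Sf9 membrane reagent, pulled down on streptavidin microbeads and FACS-sorted into low and high (top ~1%) gates on expression and reagent-binding fluorescence. Labels for polyreactivity follow the gate of origin.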
row,Sequence,polyreactivity (PSR sort gate)
1,QVQLVESGGGLVQAGGSLRLSCAASGFTFSYYAMGWYRQAPGKERELVAAITSSGARTYYADSVKGRFTISRDNAKNTVYFQMNSLKPEDTAVYYCAAEVFRTRTWEYYYWGQGTQVTVSS,high polyreactivity
2,QVQLVESGGGLVQAGGSLRLSCAASGFTFSYYAMGWYRQAPGKERELVASISRSGNTYYADSVKGRFTISRDNAKNTVYLQMNSLKPEDTAVYYCAADQVYASTHVWGYDYWGQGTQVTVSS,high polyreactivity
3,QVQLVESGGGLVQAGGSLRLSCAASGFTFSYYAMGWYRQAPRKERELVAAISGGGGTNYADSVKGRFTISRDNAKNTVYLQMNSLKPEDTAVYYCATDQFTQPSHRRDYWGQGTQVTVSS,low polyreactivity
4,QVQLVESGGGLVQAGGSLRLSCAASGFTFSYYDMGWYRQAPGKERELVAAITQSGGSTYYADSVKGRFTISRDNAKNTVYLQMNSLKPEDTEVFYCAALTYRWSARDYWGQGTQVTVSS,high polyreactivity
5,QVQLVESGGGLVQAGGSLRLSCAASGFTFTAYAMGWYRQAPGKERELVAAISYRGGRTNYAYSVKGRFTISRDYAKYTVYLQMNSLKPEDTAVYYCAARPRISTREMDYWGQGTQVTVSS,high polyreactivity
6,QVQLVESGGGLVQAGGSLRLSCAASGFTFTAYDMGWYRQAPGKERELVAAISGSGGTTYYADSVKGRFTISRDNAKNTVYLQMNSLKPEDTAVYYCAVDVPSPGGYDSWGQGTQVTVSS,low polyreactivity
7,QVQLVESGGGLVQAGGSLRLSCAASGFTFTENVMGWYRQAPGKEREFVAAITYIGGRTYYADSVKGRFTISRDNAKNTVYLQMNSLKPEDTAVYYCAADWAYYVASYLYYTFAYWGQGTQVTVSS,low polyreactivity
8,QVQLVESGGGLVQAGGSLRLSCAASGFTFTPYGMGWYRQAPGKERELVAAITWNGGRTYYADSVKGRFTISRDNAKNTVYLQMNSLKPEDTAVYYCAAVAWSWQKRGYWGQGTQVTVSS,high polyreactivity
9,QVQLVESGGGLVQAGGSLRLSCAASGFTFTRNAMGWYRQAPGKERELVAAISSSAGSTSYADSVKGRFTISRDNAKNPVYLQMNRLKPEDTAVYYCATEGSYYSWVGKVGYRYQYHYWGQGTQVTVSS,high polyreactivity
10,QVQLVESGGGLVQAGGSLRLSCAASGFTFTRYAMGWYRPAPGKERELVAAISSRGGSTNYADSVKGRFTISRDNAKNTVYLQMNSLKPEDTAVYYCAAVYYRLRYEYDYWGQGTQVTVSS,high polyreactivity
11,QVQLVESGGGLVQAGGSLRLSCAASGFTFTRYAMGWYRQAPGKERELVAAISRIGGSTYYADSVKGRFTISRDNAKNTVYLQMNSLKPEDTAVYYCAASKVPSYDYWGQGTQVTVSS,high polyreactivity
12,QVQLVESGGGLVQAGGSLRLSCAASGFTFTRYAMGWYRQAPGKERELVAAISRRGGSTYYADSVKGRFTISRDNAKNTVYLQMNSLKPEDTAVYYCAKDAGSRTVREFGYWGQGTQVTVSS,high polyreactivity
13,QVQLVESGGGLVQAGGSLRLSCAASGFTFTRYAMGWYRQAPGKERELVASISTSGGRTYYADSVKGRFTISRDNAKNTVYLQMNSLKPEDTAVYYCAASWNTQSRGWQYDYWGQGTQVTVSS,low polyreactivity
14,QVQLVESGGGLVQAGGSLRLSCAASGFTFTTNAMGWYRQAPGKERELVAAISFSGGTTYYADSVKGRFTISRDNAKNTVYLQMNSLKPEDTAVYYCPAQPGQAWWSTEHDDYWGQGTQVTVSS,low polyreactivity
15,QVQLVESGGGLVQAGGSLRLSCAASGFTFTYNAMGWDRQAPGKERELVAAISWSGGSTRYADSVKGRFTISRDNAKKTVYFQMNSLKPEDTGVYYFNKYTYRGRTGEINYWGQGTQVTVSS,high polyreactivity
16,QVQLVESGGGLVQAGGSLRLSCAASGFTFTYYALGGYRQAPGKERELVARIRGRSGSTYYADSVKGRFTISRDNAKNTVYLQMNSLKPEDTAVYYCNADFNRTVAGTPEVDYWGQGTQVTVSS,high polyreactivity
17,QVQLVESGGGLVQAGGSLRLSCAASGFTFTYYAMGWYRHAPGKERELVAAITNSGGTTYYADSVKGRFTISRDNAKNTVYLQMNSLKPEDTAVYYCAAVPYYVLARSFYRYGYWGQGTQVTVSS,low polyreactivity
18,QVQLVESGGGLVQAGGSLRLSCAASGFTFTYYAMGWYRQAPGKERELVAGITRSGGSTYYADSVKGRFTISRDNAKNTVYLHMNSLKPEDTAVYYCAAVGSLYYYRYDYWGQGTQVTVSS,high polyreactivity
19,QVQLVESGGGLVQAGGSLRLSCAASGFTFTYYAMGWYRQAPGTERELVAAISWRGTSTFYADSVKGRFTISRDNAKNTVYLQMNSLKPEDTAVYYCAAVGQWGYGYWGLGTQVTVSS,high polyreactivity
20,QVQLVESGGGLVQAGGSLRLSCAASGFTFTYYVMGWYRQAPGKERELVAAISVSGGSTYYADSVKGRFTITRDNAKNTVYLQMNSLKPEDTAVYYCAARSPFYSYTPGYEYWGQGTQVTVSS,high polyreactivity
21,QVQLVESGGGLVQAGGSLRLSCAASGFTFVAYAMGWYRQAPGKERELVAAISKSGGNTYYADSVKGRFTISRDNAKNTVYLQMNSLKPEDTAVYYCAAPRRYAWGQVNYWGQGTQVTVSS,high polyreactivity

row,Sequence,polyreactivity (PSR sort gate)
1,QVQLVESGGGLVQAGGSLRLSCAASGFTFVAYAMGWYRQAPGKERELVAAISRRGGTTYYADSVKGRFTISRDNAKNTVYLQMNSLKPEDTAVYYCNARGFPGKFGYWGQGTQVTVSS,high polyreactivity
2,QVQLVESGGGLVQAGGSLRLSCAASGFTFVDYAMGWYRQAPGKERELVAAISSSGDSTYYADSVKGRFTISRDNAKITVYLQMNSLKPEDTAVYYCAAEYDREEYSGYDYWGQGTQVTVSS,low polyreactivity
3,QVQLVESGGGLVQAGGSLRLSCAASGFTFVDYAMGWYRQAPGKERELVAAITVSGDSTYYADSVKGRFTISRDNAKNTVYLQMNSLKPEDTAVYYCAADPGYYDGGYWGQGTQVTVSS,low polyreactivity
4,QVQLVESGGGLVQAGGSLRLSCAASGFTFVFNARAWYRQAPGKERELVATITNGGSTYYADSVKGRFTISRDNAKNTVYLQMNSLKPEDTAVYYCAAVRKQCSGFDYWGQGTQVTVSS,high polyreactivity
5,QVQLVESGGGLVQAGGSLRLSCAASGFTFVFYAMGWYRQAPGKERELVAAISSRGGSTYYADSVKGRFTISRDNAKNTVDLQMNSLKPEDTAVYYCNVVSTYWTTYEEYYWGQGTQVTVSS,high polyreactivity
6,QVQLVESGGGLVQAGGSLRLSCAASGFTFVGNAMGWYRQAPGKARELVAAIRWTDGSTYYADSVKGRFTISRDNAKNTVYLHMNSLKPEDTAVYYCAKDYRDYARAGDYNVKQADDYWGQGTQVTVSS,low polyreactivity
7,QVQLVESGGGLVQAGGSLRLSCAASGFTFVGNAMGWYRQAPGKERELVAAITSGGSTYYADSVKGRFTISRDNAKNTVYLQMNSLKPEDTAVYYCATGGRGGRRYEYWGQGTQVTVSS,low polyreactivity
8,QVQLVESGGGLVQAGGSLRLSCAASGFTFVGYAMGWYRQEPGKERELVAAISTRGGSTYYADSVKGRFTISRDNAKNTDYLQMNSLKPEDTAVYYCNARGAKRGLLSYYWGQGTQVTVSS,high polyreactivity
9,QVQLVESGGGLVQAGGSLRLSCAASGFTFVHNAMGWYRQAHGKERELVAAISSSGGRTYYADSVKGRFTISRDNAKNTVYLQMNSLKPEDTAVYYCATVNRYGPSYGYWGQGTQVTVSS,high polyreactivity
10,QVQLVESGGGLVQAGGSLRLSCAASGFTFVHYAMGWYRQAPGKETELVAAISSGGSTYYADSVKGRFTISRDNAKNTVYLQLNSLKAEDTAVYYCAALKYSRGVRYGYWGQVTQVTVSS,high polyreactivity
11,QVQLVESGGGLVQAGGSLRLSCAASGFTFVINDMGWYRQAPGKERELVADITSGGDTNYADSVKGRFTISRDNAKNTVYFQMNSLKPEDTAVYYCAADIYPDWIYLLFGYWGQGTQVTVSS,low polyreactivity
12,QVQLVESGGGLVQAGGSLRLSCAASGFTFVNYAMGWYRQAPGKERELVAAIRRSGSRTYYADSVKGRCTISRDIAKYTVYLQMNSLKPDDTPVYYCAAVWYRLYGYWGQGTQVTVSS,low polyreactivity
13,QVQLVESGGGLVQAGGSLRLSCAASGFTFVNYVMGWYRQAHGKERELVAAISRSGGSTYYADSVKGRFTISRDNAKNTVYLQMNSLKPEDTAVYYCAARWFYRAGFNYWGQGTQVTVSS,high polyreactivity
14,QVQLVESGGGLVQAGGSLRLSCAASGFTFVQYAMGWYRQAPGKERELVATISKSGGITYYADSVKGRFTISRDNAKNTVYLQMNSLKPEDTAVYYCAAAWYYSSRGFHATWGHDYWGQGTQVTVSS,low polyreactivity
15,QVQLVESGGGLVQAGGSLRLSCAASGFTFVRNAMGWYRQAPGKERELVAAISGSGGRTYYADSVKGRFTISRDNAKNTVYLQMNSLKPEDTAVYDCNTASAYEYEYWGQGTQVTVSS,high polyreactivity
16,QVQLVESGGGLVQAGGSLRLSCAASGFTFVRNTLGWYRQAPGKERELVATITFSGGSTYYADSVKGRFTISRDNAKNTVYLQMNTLKPEDTAVYYCAAEDWDDGYDYWGQGTQVTVSS,high polyreactivity
17,QVQLVESGGGLVQAGGSLRLSCAASGFTFVRNTMGWYRQAPGKERELVAAISRSGGSTYYADSVKGRFTISRDNAKNTVYLQMNSLKPEDTAVYYCNAYRYVHYDWGQGTQVTVSS,high polyreactivity
18,QVQLVESGGGLVQAGGSLRLSCAASGFTFVRNVMGWYRQAPGKERELVAAINTGGTTDYADSVKGRFTISRDNAKNTVYLQMNSLKPEDTAVYYCNADYDSQYHYLLRYDYWGQGTQVTVSS,low polyreactivity
19,QVQLVESGGGLVQAGGSLRLSCAASGFTFVRYAIGWYRQAPGKERELVSVISRSGGSTNYADSVKGRFTISRDNAKNTVYLQMNSLKPEDTAVYYCAASLQYRRVVKGGDYWGQGTQVTVSS,high polyreactivity
20,QVQLVESGGGLVQAGGSLRLSCAASGFTFVRYAMGWYRQAPGKERELVAAISSGGSTNYADSVKGRFTISRDNAKNTVYLQMNSLKPEDTAVYYCNAVSRKVYPGPMDYWGQGTQVTVSS,high polyreactivity
